Measured values published in the DeepSol protein solubility set.

Assay: soluble on expression in E. coli; label from the status in PepcDB or PDB records

For “MEIGPDGKPCRACVSVEDMMKKGREMAEKIKKKESETTPSTSTGAKLHGCPVDKDELGRSTWNLLHTMSVYYPEKPTDEDKDRARSFMSILGKTYPCDFCAKDLRKDLKESPPKVESREAFALWMCQLHNKVNEKTGKPKFECRDVMQRWRDGWKDGSCDY”, which “soluble on expression in E. coli” value is on record?
Its value is “soluble”.

Which “soluble on expression in E. coli” value does the source give for “MSLEGVENKVIVLAGMIGAGKSSYTELIANELGTKAFYESIKDNRILEMFYDDPKRWAFALQIYFLNTRFRSIKAALTDQNNVLDRSIYEDALFTQINFEEGNISEPEMDTYLDLLDNMMEELAYMPKKAPDLLIYLRGSLDTVLSRIALRGRPYEQIDDNPGLLEYYKHLHSRYDSWFASYDKSETLVINIDEIDINKPNDADYVMQLIHEKLKREGHHHHHH” here?
The value was “soluble”.

Which “soluble on expression in E. coli” value does the source give for “MADRKSDEGEDEYQHKEQMVTNRTSSFQPKSTEDSISKLAKMRAADRREEFMEERASFSAVKRGYQAGDDEEDDFTAEEEPPAKKPLTVAERLMAAMGHKAGEGLGKHGQGISEPIASSTQRGRTGLGHNAGKATARDFNEVWDETTEEKTVVERVEWMTDIEEEKRAEICEQLKDDKWMVIGKEKRTIDDETKFCSQQSITEMIEAKNVFDLMSDKDLREARTRANPYETIGSAFFQNRAAMKTANMDKIYDWILSRENTENDRFLLKNPLQESQTAENVDRSEDLFYFADVCAGPGGFSEYMLWRKGFYNAKGFGFTLAGKDDFKLFKFTASSQYFFETFYGTKDNGDVMDPVNIDSLEAHISRGTSGLGVHLMMADGGFSVEGQENIQEILSKRLYLCQLLVSLCIVREGGNFFCKLFDIFTPFSVGLIYLMRVCYQSVSLHKPHTSRPANSERYITCKGLRKEFANVVKEYLKRVNRKLDELKNKKSHDDVTDLMPLDVIEADQIFMDEIIRHNEFLANRQTLYLRKYQSFAKNQGQFDKDQGNLRDECLKYWQVPNKQRPRGGDRGNRHDNMQRLNPLQVYGKYCKKVCGESEIGNTFPDFSLNCLDAPLPNIPYEEYRFVPLASSGSPNLLIAAGDSAFIFRSGRFESISADHIRIPENTILLVDWAEEVVRGDGNRIKISSEPQVVRIIDAAVLFGDDVSNLPYEERMKAAEKFVAALKQTNRKVKKGWGHRAEMIKPHLKICAKTYSLAELDEFRSNLEKLEHNRELAVLFTEGEFTFRCQALRFTRIIKQEWRMGWSKSQQKPYAHSQEHQNAGSIPVELWAEKSIYSSFWDSVICLNKDKKKLMEAMEHTKGKCPIPSSIWSWKACILNLFPFFSVRTPYGPEKILNYPEPFEGKPTIAALKAQIENTDLIVKRVRN” here?
Its value is “not soluble”.

For “MGSDKIHHHHHHMSRFFRHYQAFHAIIETGTVTGAAERLGVSQPAISNLLAQLERRTRLKLFERNRGRLLPTPEAMVLFDEIDTVIRGLGQVSQAVVDLQNQKAGQLQVATNHAMAFGFMPEQIARFAADKPNLTVAFQSQYSAKIQDWVMAGLFEIGICEQPVRTDGLDWVPFFFEIQCAVPADSPLARHEELTPILLDDVPFIVMGADHMVTRRAREAFHREGANLRIRCQTDLFRNALNLVKQGLGVTLVDPFTLSSDDRSGYVLRRFAPRILLDVIIVTARGRPISAIGAQFLEQVSASMTTLATAAPDPAEP”, which “soluble on expression in E. coli” value is on record?
Its value is “not soluble”.

Which “soluble on expression in E. coli” value does the source give for “MHMLKARNCGWIRLLPLFMLSLPVQAELRCVANAVDIESFFSAATAEDKQQVEQAINSSVNLVPFGLSASNWKVHRGDLVVEGNIESNQKLIVLGNLTVKGNISTFSLSNPWVILGNVTATNIVADSPLLITGSINASGLVFIDSYYDNPSTIKGSINARGIFINDIIAPVVASSTNSEFMVRASDKHDTENVKKALMIINPDAYYWGLINDEDALKEIFKRSNIRMAGNVCNQMKKEALFRPKPSPELVQELQMLDEGKVAAFEGRDIATFDLAVMRTLPRLKGISANLRKQLINSNDEQTIESMARYMPDNEILELTDQQLGYQPVVLGLLDREPLSVEIMTRMSRLPDGVGPLNLALRENLPLDIVMTLAKRDWDMIIQELYKDAWLLPESIIDGYIRSDDSSIRQVGAGGQLTYNQAMQLANDSSNNVVTSLAFKLAEMKHHGQLLRMTPQESDKVAGYLYQKFENDDDLIRVLFLALPDNLQFNFVKRMEKKSPAYFCCRDMQVIHSDAALQRLLTRFNDPEGWSNLAKNQYLSTSMKQKIWQRALSHRKNNPKADSDAYETSADMILSELISHGEVDDQMLLNATALIRSDDWDFLESALISWDNLPAVVLKELQQNTPRNDIWAKFFLRQENSSRAQVDEALRVYYALDPDALAQLDVLAKQPDRIWWSTLAKSNLTFFKFGALNNRHTPPAVLAAEIDPEWWIVAMNNPRFPVDVLKARLKRDPLLALELVNPELDLVRQLALNGKTRAIREQAMRKLDELY” here?
The value was “not soluble”.

With “MGSDKIHHHHHHMFSRRFRRLSPRDIIGGDVTLRRPSVAEALAVASASFIASFYVSGETILLAAGLALGGLAIASSLPARAGRVFIAGIRLEFMIPGRIVEGEVRTGRLLVENRTLNPMVLKIILKPEEGLEVEPERAEVHAPPLSRRSISLVVKPRFGRYKLIASIEEARSPLGLWSLQPEQPQTAVEVLATPKPEVVSEDISVLTGPGSLDRGREGSGLDYRSFREYQPGDDPRSIEWKLTGRRGAPVVREVEGAESSKPVRLVLAIRPQHYRKPLYNSPYGAAARRLYTISMMLAEEGVRHSVLLPGARGFQELEISTPRDTLELGLALAIYTPEDPPIDYAYLIEDLARRDSPVIVVSPKGTLGEIVDKDRVYVLEV” as the sequence, how does the “soluble on expression in E. coli” value read?
The value was “not soluble”.

Which “soluble on expression in E. coli” value does the source give for “VGKVFVDAIVKFTKEGDKIPLEIVWDDGRRFEVDRVLDVTKAASLKAGGRGTRYKCRIRGKEIYLFFDDEKWFVETGNK” here?
The value was “not soluble”.

With “MGSDKIHHHHHHVEPRSLRSRRSSSYYCGELIKADFSQRREFVMRNSLRRWKNEKLAQKLKKVFESKSVRVIYLPDIEMVVEEVHKLIPDGATVSSGGSVTLQETGVMDLLRSGKYEFLDRDSVSEDKERRKIMIKAFESDYYLCSANAITENGEILLLDGSGNRAAAVTFGPEKVIFVAGINKVVEDLDAGIKRIKSIAPMNAKRLNLHTPCATTGFCSDCSSEERICEMYSIIIDSRRRPWRYTIVLIGEELGL” as the sequence, how does the “soluble on expression in E. coli” value read?
The value was “not soluble”.

For “MSLQEVITLKVIGPWSGAELDAFMEVLKAFEKQHPNIKIEYKTYRAEDLSTILPLQFESHDTPADVIFMWGWFIAEMGKKGHLMELNNIINPEEYVPGILDSVTVDGKIYGAPFTAAAKPGFWYRKSFFEKHNLKPPKTWDDFVALLEEIKKIPGIKAPIVSGDSVGWPLSDVTEHFILTFGGKDLQLKLIKGEVKWEDPQVRKIFEEKLVPLLKAGYFSDPIEWTSAVDLWWKGEYALYFMGTWITGMVDDPNDLGLIPLPGVKAMVIAPDYLMVPKYTSHPKEALELAKFLATEGQRIHVGTKSGKLATWKKVSIDDYWAPMRDVAKIVANVESAPDLDDSVGGEWQKVFWDQLKLLWVQPDRLDEVLKTLDEKFPKEGHHHHHH”, which “soluble on expression in E. coli” value is on record?
Its value is “soluble”.

With “MGSDKIHHHHHHMIDIKNTLLLGHRGARGEALENTLSGFEYAQNLQLSGLAGVEFDVQLSRDGQLVVFHDDTLERMCAQQSRLDQLNVSEIQRHRQFGQPIITLLDIASALNTYTYIELEVKTHSRTDYAKLVKALMHDLIDSSLASLPIVLTSFDVALHARLQRSTLLRHIPRGLLIREPELLKQAPNTALQLGCGQLGIHYPLLNHKVIQCCHQYDLPVSAWTVNDIETIKQLIDWQVDVIITDYPSYLLLP” as the sequence, how does the “soluble on expression in E. coli” value read?
Its value is “not soluble”.

For “MKIVILAPTITPIVSYGGLGDVMRDLPKFLKKGNEVVVLTLNHYNRYFTLPYEDIKKITVIYKGAKITFDVLRTKHPTTGVDLIVFSNESVNNLNVWDPIKYEIFADLVITYLDEVKDIDVVSGHDWMCGLAIAKCNDILDLPTTLTIHNEAFKGEMIEYKGEVMTFLELGIKYADAVNTVSPSHAEEIKNYPYIKKYLNNKPFCGILNGIDIDEYDPMKIIERMCNLSNNKLDPRNYAYISPYSAEDSHNIKPKIKYSWFYRGGVYEYVEDWNKIDKGISATDVEVHGGVDGDIETPLIGFVGRATHQKGFNTMFEAIPELLEKHDIRFVFLTKGDRDIEERLKNLANEHDGRILALIGYSLPLSSLVFAGSDWIIMPSYWEPCGLVQMEAMAYCTPVIATETGGLKDTIIPLHPNPYEHPNFDKATGVLFKVPDKVGFMWGVEHALNWTFYKLNEICMFMQYIRYKCPKHPYDENSPLSMMMKNCYYHVFRNLSWQNSPSIRKYKGLFGGAIYNHYLQP”, which “soluble on expression in E. coli” value is on record?
The value was “soluble”.

For “MGSDKIHHHHHHMSLTIDGVTKKFGTFTAVNNLHVSVPKGEMFGMLGANGAGKTTTFRMILGLLEPTEGTIHWREQPLTYNQTNCIGYLPEERGLYPKLTVKDQLKYLGRLKGMKTQDIQKEMKMWLERFEVPEYEHKRVEQLSKGNQQKIQFIASVLHRPELLILDEPFSGLDPVNVELLKKAVIDLKKEGTTILFSSHRMEHVEELCQHLCILHRGSPVVEGNLKNIKRSFGKKNVIIQGEFALEPLVDIPGVLRHQETSAGAKFQIANEETAKLLFQAVATAGFVQKFELEEPSLHDIFVEKVGTRYE”, which “soluble on expression in E. coli” value is on record?
The value was “not soluble”.

For “MIVFSSLQIRRGVRVLLDNATATINPGQKVGLVGKNGCGKSTLLALLKNEISADGGSYTFPGSWQLAWVNQETPALPQAALEYVIDGDREYRQLEAQLHDANERNDGHAIATIHGKLDAIDAWSIRSRAASLLHGLGFSNEQLERPVSDFSGGWRMRLNLAQALICRSDLLLLDEPTNHLDLDAVIWLEKWLKSYQGTLILISHDRDFLDPIVDKIIHIEQQSMFEYTGNYSSFEVQRATRLAQQQAMYESQQERVAHLQSYIDRFRAKATKAKQAQSRIKMLERMELIAPAHVDNPFRFSFRAPESLPNPLLKMEKVSAGYGDRIILDSIKLNLVPGSRIGLLGRNGAGKSTLIKLLAGELAPVSGEIGLAKGIKLGYFAQHQLEYLRADESPIQHLARLAPQELEQKLRDYLGGFGFQGDKVTEETRRFSGGEKARLVLALIVWQRPNLLLLDEPTNHLDLDMRQALTEALIEFEGALVVVSHDRHLLRSTTDDLYLVHDRKVEPFDGDLEDYQQWLSDVQKQENQTDEAPKENANSAQARKDQKRREAELRAQTQPLRKEIARLEKEMEKLNAQLAQAEEKLGDSELYDQSRKAELTACLQQQASAKSGLEECEMAWLEAQEQLEQMLLEGQSN”, which “soluble on expression in E. coli” value is on record?
The value was “soluble”.

For “MGSSHYHHHHSSGLVPRGSHMAEKPISPTKTRTRFEDIQAHYDVSDDFFALFQDPTRTYSCAYFEPPELTLEEAQYAKVDLNLDKLDLKPGMTLLDIGCGWGTTMRRAVERFDVNVIGLTLSKNQHARCEQVLASIDTNRSRQVLLQGWEDFAEPVDRIVSIEAFEHFGHENYDDFFKRCFNIMPADGRMTVQSSVSYHPYEMAARGKKLSFETARFIKFIVTEIFPGGRLPSTEMMVEHGEKAGFTVPEPLSLRPHYIKTLRIWGDTLQSNKDKAIEVTSEEVYNRYMKYLRGCEHYFTDEMLDCSLVTYLKPGAAA”, which “soluble on expression in E. coli” value is on record?
Its value is “soluble”.

For “MNKLKYLQGYPEHILAQVAPMVENGKLAEWVKKKYPTMHDITSEKALFDYTQALKNKYIKKSSPLSKVVYDPKIHVVNNALGLHTFVSRIHGNKLKAKNEIRISSVFRKAPEPLLRMLVVHELAHIKEKEHNKAFYALCCHMEPEYHQLEFDARLYLTYLETLLEHHHHHH”, which “soluble on expression in E. coli” value is on record?
The value was “soluble”.

Which “soluble on expression in E. coli” value does the source give for “MNPAPERTVMQHVRPLPYEADFTGFLSNTVAPRWMEALRIQRMRTCFPHFDSGAPQHLCIITETTVRYRKPVRYSDAIVGKAWLQSARYSRWIIAFSFAFEFSGLPAFEGRQAGTFIDPLEHHHHHH” here?
Its value is “not soluble”.

Which “soluble on expression in E. coli” value does the source give for “GMSGDSEVGTEAGLTLGGDGILRLTWPRGAAITAADAERAMLRVNQLCGDDRHPMLVDMATTADVSRGARAVFGRPCQASRIALLGSSPVDRVLANFFLGINAVPCPTKFFTSERDALTWLALT” here?
Its value is “soluble”.

For “HAAGFRRGDLVHNTLSYHFSPGGFIMDGGARACGCAVFPAGVGNTEAQIEAIKQLQPTGYTGTPSYLLTLLQKYQEQYGELPSFTKALVSGEAVTADMQQAFTDKGIAVFQAYASAELGLIAYQVAGEQGLVIGED”, which “soluble on expression in E. coli” value is on record?
The value was “not soluble”.

For “MSATTTNLKEAIVNRRSIRKVTKNDAITKERIEEVLKTALHAPTSFNMQSGRMVVLMDGEHEKFWDIVKETLRARVPAENFEATVERLKGFHAGVGTVLFFEDQATVEKMQENAPLYKDQFPFWSHQGNAMLQHTVWMLLSAEGIGASLQHYNPIVDAEVKETWNIPAEWSLVGQMPFGEPNEQPAERTFLPTEDVVKFY”, which “soluble on expression in E. coli” value is on record?
The value was “soluble”.
